Positions count from the first letter of the chain named.
T1: cynomolgus monkey CTLA4 on stably transfected CHO-K1 cells (human CTLA4 cDNA with S13N, I17T and L105M) (human backbone with cynomolgus monkey …, UniProt P16410 36-223)
T1 chain: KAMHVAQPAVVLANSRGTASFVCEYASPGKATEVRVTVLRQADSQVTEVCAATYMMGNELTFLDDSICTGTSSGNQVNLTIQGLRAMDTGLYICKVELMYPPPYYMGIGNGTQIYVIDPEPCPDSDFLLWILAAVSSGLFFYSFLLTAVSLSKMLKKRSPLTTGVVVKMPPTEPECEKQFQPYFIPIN

T2: HuCD86-HuIgG1 (fusion protein of the extracellular part of human CD86 and human Fc gamma 1, R&D Systems Cat … (human, UniProt P42081 24-247))
T2 construct: extracellular domain; bought; also called CD86-IgG1; CD86-Ig; not shown: human Fc gamma 1
T2 sequence (looked up): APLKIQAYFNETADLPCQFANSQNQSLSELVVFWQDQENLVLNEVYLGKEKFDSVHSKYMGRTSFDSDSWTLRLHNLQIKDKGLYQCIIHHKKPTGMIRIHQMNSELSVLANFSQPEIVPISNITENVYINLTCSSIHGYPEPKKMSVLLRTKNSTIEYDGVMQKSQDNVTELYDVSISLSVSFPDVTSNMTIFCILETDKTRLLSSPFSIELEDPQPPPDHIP

T3: HuCD80-HuIgG1 (fusion protein of the extracellular part of human CD80 and human Fc gamma 1, R&D Systems Cat … (human, UniProt P33681 35-242))
T3 construct: extracellular domain; bought, produced in NS0 cells; also called CD80-IgG1; CD80-Ig; not shown: human Fc gamma 1
T3 sequence (looked up): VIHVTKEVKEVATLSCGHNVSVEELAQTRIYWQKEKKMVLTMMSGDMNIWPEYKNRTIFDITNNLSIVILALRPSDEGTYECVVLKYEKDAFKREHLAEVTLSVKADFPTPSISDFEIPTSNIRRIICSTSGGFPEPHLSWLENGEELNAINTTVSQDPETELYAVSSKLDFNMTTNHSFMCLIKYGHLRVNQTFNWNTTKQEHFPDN

B1: 4CTLAPMP03C4 (VHH)
VHH: EVQLVESGGGLVQAGGSLRLSCAASGGTFSFYGMGWFRQAPGKEREFVADIRTSAGRTYYADSVKGRFTISRDNAKNTVYLQMNSLKPEDTAVYYCAAEMSGISGWDYWGQGTQVTVSS
notes: short label tied to the entry by the clone code only; not shown: C-terminal c-myc tag and His6 tag
B2: 4CTLAPMP03A6 (VHH)
VHH: EVQLVESGGGLVQPGGSLRLSCAAPGRTFSNYAMGWFRQAPGKGREFVADIRWSDGRTYYADSVKGRFTVSRDNAKNTVYLQMNSLKPEDTAVYYCAAQGGVLSGWDYWGQGTQVTVSS
notes: as for B1
B3: CD8086PMP2E6 (VHH)
VHH: EVQLVESGGGLVQAGGSLRLSCAASGSIFSIYDMGWYRQAPGKQRVLVATITSGGSTNYADSVKGRFTISRDDAKNTVYLQMNSLKPEDTAVYYCNAIAHEEGVYRWDFWGQGTQVTVSS
notes: not shown: C-terminal c-myc tag and His6 tag
B4: CD8086PMP2F5 (VHH)
VHH: B3 VHH with E6K, V46E, T50A, D73N, H100Y
notes: as for B3
B5: 4CTLAPMP17E3 (VHH)
VHH: EVQLMESGGGLVTAGGSLRLSCAASGGTFGHYAMAWFRRPPGNEREFVAGIGWTYTTFYADSVKGRFAISRDNAENTVYLQMNNLKPDDTAVYYCAAAELKGRNLRVPDYEHWGQGTQVTVSS
notes: as for B1
B6: 4CTLAPMP11E3 (VHH)
VHH: EVQLVESGGGLVEPGGSLRLSCAASGSISSYNVMGWYRQAPGQQRDLVAHIASNGEIMYADSAKGRFTISRDNAKKTVYLQMNSLKPEDTAVYYCKLWVLGNDYWGQGTQVTVSS
notes: also called 11E3 WT; not shown: C-terminal c-myc tag and His6 tag
B7: 4CTLAPMP12H2 (VHH)
VHH: B6 VHH with G108R
notes: as for B1
B8: CD8086PMP1D1 (VHH)
VHH: EVQLVESGGGLVQAGGSLRLSCAASGRTFSSKAMGWFRQAPGKERDFVAAITWSGGSTYYADHVKGRFTISRDNAKNTVYLQMNSLKPEDTAVYYCATNPYGLGQVGYDYWGQGTQVTVSS
notes: as for B3
B9: CD8086PMP2A7 (VHH)
VHH: B8 VHH
notes: as for B3
B10: 4CTLAPMP13B2 (VHH)
VHH: EVQLVESGGGLVQPGGSLRLSCVASGIHFAISTINWYRQAPGKQRESVAAITGTSVTGYADSVKGRFTLSRDNAKNTVYLQMDNLKPEDTAVYYCNVWSGRDYWGQGTQVTVSS
notes: as for B1
B11: 4CTLAPMP02C11 (VHH)
VHH: EVQLVESGGGLVQPGGSLRLSCAASGNIFTRHIMGWYRQAPGKQRELVASITPGDNINYADSVKGRFTISRDGAKNTVYLQMNSLKPEDTAVYYCNAHGSILLDRTNYWGQGTQVTVSS
notes: as for B1
B12: 4CTLAPMP08E5 (VHH)
VHH: B11 VHH with G26R, N27D, H32N, E46D, D55G, I57M, N58Y, T106S
notes: label 8E5.4 tied to 4CTLAPMP08E5 by the clone code only; the suffix .4 is not explained; also called 8E5.4; not shown: C-terminal c-myc tag and His6 tag
B13: 4CTLAPMP06C10 (VHH)
VHH: EVQLVESGGGLVQAGGSLRLSCAASGRTFSNYTIAYFRQAPGREREFAAAISPHGTLRSFADSVKDRFTISRDNAKNTVWLQMNSLKLEDTAVYYCAADPSGWGLRQHSENEYPYWGLGTQVTVSS
notes: as for B1
B14: 4CTLAPMP02A5 (VHH)
VHH: EVQLVESGGGLVQAGGSLRLSCAASGRTNSTTLMGWSRRAPGKEREFVAAISGSGTLTSYADSVKGRFAISRDNAKNTVYLQMNSLKPEDTAIYYCAAGLTSWALIPSRTLTTWGQGTQVTVSS
notes: as for B1
B15: CD8086PMP1B2 (VHH)
VHH: EVQLVESGGGLVQAGGSLRLSCAASGRSFSSYVMGWFRQAPGKEREFVAAIIGRDIGTYYADSVKGRFTISRDNAKTTVYLQMNALKPEDTAVYYCAADSRSRLSGIRSAYDYWGQGTVTVSS
notes: as for B3
B16: CD8086PMP1A3 (VHH)
VHH: EVQLVESGGGLVQAGGSLRLSCAASGPTSSSYSMGWFRQAPGKEREFVAAINWSHGVTYYADSVKGRFTISRDIAKNTVYLQMNSLKPEDTAVYYCAANEYGLGSSIYAYKHWGQGTQVTVSS
notes: as for B3
B17: 4CTLAPMP10G5 (VHH)
VHH: EVQLVESGGGLVQAGGSLRLSCAASGGTFSRYIMAWFRQAPGKEREFVAVIDGSGYSTDYAGSVKGRFTIARDNTKNTAYLQMNSLKPEDTALYFCGAGRQYSTGPYWYDYWGQGTQVTVSS
notes: as for B1
B18: CD8086PMP2B10 (VHH)
VHH: EVQLVESGGGLVQAGGSLRLSCTGSQISFSDNTMNWYRQVPGKQRELVASLSIFGATGYADSVKGRFTISRDIAGNTVYLQMNDLKIEDTAVYYCKLGPVRRSRLEYWGQGTQVTVSS
notes: as for B3

Key:
[1] = molecular target: T4, human CTLA4 (Y201 mutated to valine) on stably transfected CHO-K1 cells (human, UniProt P16410 36-223); assay: FACS, direct binding titration on human CTLA4 CHO cells (head prints IC50)
T4 construct: whole, on cells; the mutation of the intracellular position Y201 keeps the protein on the membrane; also called human CTLA4 overexpressing CHO cells; human CTLA4 transfectant
Protocol: Binding of putative CTLA4 reactive Nanobodies clones was detected using unlabeled anti-c-myc tag mouse monoclonal antibody 9E10, followed by a phycoerythrin conjugated F(ab′)2 derived from goat-anti-mouse IgG (human and bovine crossabsorbed), and read on a BD FACSarray instrument. Dead cells were excluded from the analysis by gating out TOPRO3 vital dye positive scoring cells. Binding of the Nanobodies to cells was evaluated in BD FACSarray control software as PE channel histograms.

[2] = molecular target: T5, HuCTLA4-HuIgG1 (fusion protein of the extracellular part of human CD152 and human Fc gamma 1, CTLA4-Ig) (human, UniProt P16410 36-161); assay: SPR, Biacore T100, CTLA4-Ig amine-coupled
T5 construct: extracellular domain; also called CTLA4-hFc; CTLA4-Fc; not shown: human Fc gamma 1
Protocol: Affinity constants (Kd) of individual purified Nanobody clones were determined by surface plasmon resonance on a Biacore T100 instrument. […] Remaining reactive groups were inactivated using ethanolamine. […] Each sample was injected for 2 min at a flow rate of 45 μl/min to allow for binding to chip-bound antigen. Next, binding buffer without Nanobody was sent over the chip at the same flow rate to allow for dissociation of bound Nanobody. After 2 min, remaining bound analyte was removed by injecting regeneration solution (10 mM Glycine/HCl pH 1.5). Binding curves obtained at different concentrations of Nanobody were used to calculate KD values. For some clones, only a single undetermined concentrations of Nanobody was injected.

[3] = molecular target: T1, cynomolgus monkey CTLA4 on stably …; assay: FACS, direct binding titration on cyno CTLA4 CHO cells (head prints IC50)
[4] = molecular target: T2, HuCD86-HuIgG1 (fusion protein of the …); assay: ELISA, periplasmic extract on coated antigen, anti-myc detection
Description: (§1) To this end, 3 independent ELISA assays were set up. In these ELISAs, either HuCD80 or HuCD86 fusion proteins or human IgG1 were coated on ELISA plates which were washed and then blocked using Marvel skimmed milk powder (Premier Brands UK Ltd., Wirral, Merseyside, UK). […] Four aliquots of periplasmic extract of individual clones prepared as described in Example 4 were allowed to bind in all four types of ELISA plates. Binding of Nanobody to immobilized antigen was detected using mouse anti-c-myc tag monoclonal antibody as a secundary, followed by a goat-anti-mouse (human and bovine serum protein pre-absorbed) HRP conjugate for detection (for detailed protocol, see the prior art and prior applications filed by applicant).

[5] = molecular target: T6, Human IgG1, purified from a human plasma (Sigma-Aldrich Cat #I-5154) (human); assay: as above
T6 construct: also called HuIgG1
Description: as §1

[6] = molecular target: T3, HuCD80-HuIgG1 (fusion protein of the …); assay: as above
Description: as §1

[7] = molecular target: T2, HuCD86-HuIgG1 (fusion protein of the …); assay: SPR, Biacore 3000, antigen amine-coupled
Protocol: (§2) Affinity constants (Kd) of individual purified Nanobody clones were determined by surface plasmon resonance on a Biacore 3000 instrument. […] Remaining reactive groups were inactivated using ethanolamine. Nanobody binding was assessed at 1 and 0.1 microM. Each sample was injected for 4 min at a flow rate of 45 μl/min to allow for binding to chip-bound antigen. Next, binding buffer without Nanobody was sent over the chip at the same flow rate to allow for dissociation of bound Nanobody. After 2 min, remaining bound analyte was removed by injecting regeneration solution (50 mM NaOH or Glycine/HCl pH 1.5). Binding curves obtained at different concentrations of Nanobody were used to calculate Kd values.

[8] = molecular target: T3, HuCD80-HuIgG1 (fusion protein of the …); assay: SPR, Biacore 3000, antigen amine-coupled
Protocol: as §2

T4 sequence (P16410 other isoform, or with tags, fused parts or gaps, change not shown): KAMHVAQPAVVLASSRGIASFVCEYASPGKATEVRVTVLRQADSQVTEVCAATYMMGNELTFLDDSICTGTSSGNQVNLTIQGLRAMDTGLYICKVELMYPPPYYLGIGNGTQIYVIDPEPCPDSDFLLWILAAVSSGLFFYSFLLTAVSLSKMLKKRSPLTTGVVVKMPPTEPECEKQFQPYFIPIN
T5 sequence (P16410 36-161 limits assumed): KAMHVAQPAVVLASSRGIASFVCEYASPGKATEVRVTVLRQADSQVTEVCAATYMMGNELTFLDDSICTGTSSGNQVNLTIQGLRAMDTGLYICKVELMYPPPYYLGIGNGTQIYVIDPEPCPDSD

| Binder | IC50 [1] [nM] | koff [2] [s⁻¹] | OD [4] [OD] | OD [5] [OD] | OD [6] [OD] | further results |
| --- | --- | --- | --- | --- | --- | --- |
| B1 | 8.06 | 0.0205 |  |  |  | IC50 [3]: 6.73 nM |
| B2 |  | 0.0018 |  |  |  |  |
| B3 |  |  | 0.538 | 0.049 | 1.52 |  |
| B4 |  |  | 0.774 | 0.056 | 1.65 |  |
| B5 | 11.2 | 0.00489 |  |  |  |  |
| B6 | 4.91 | 0.00496 |  |  |  | Kd [2]: 10 nM; kon [2]: 742000 M⁻¹ s⁻¹; IC50 [3]: 4.5 nM |
| B7 | 5.82 | 0.00258 |  |  |  | Kd [2]: 7.52 nM; kon [2]: 349000 M⁻¹ s⁻¹; IC50 [3]: 5.65 nM |
| B8 |  |  | 0.043 | 0.046 | 1.89 |  |
| B9 |  |  | 0.042 | 0.043 | 1.71 |  |
| B10 | 3.6 | 0.0067 |  |  |  |  |
| B11 |  | 0.0235 |  |  |  |  |
| B12 |  | 0.00386 |  |  |  |  |
| B13 | 5.73 | 0.00279 |  |  |  | IC50 [3]: 5.47 nM |
| B14 | 5.72 | 0.0053 |  |  |  | IC50 [3]: 7.74 nM |
| B15 |  |  | 0.038 | 0.046 | 1.99 | binding result [7]: no binding (tested: 1 and 0.1 microM); Kd [8]: 0.13 nM; koff [8]: 5.9e-05 s⁻¹; kon [8]: 440000 M⁻¹ s⁻¹ |
| B16 |  |  | 0.053 | 0.052 | 1.92 |  |
| B17 | 4.65 | 0.00618 |  |  |  |  |
| B18 |  |  | 1.73 | 0.044 |  | Kd [7]: 4 nM; koff [7]: 0.00097 s⁻¹; kon [7]: 250000 M⁻¹ s⁻¹ |
